Laboratory results taken from the supplement of paper PMC9170038.

Tested on: MS2 coat protein
Assay: apparent KD of MS2 coat protein; designed switch direction (-1 OFF switch, 1 ON switch): -1; higher = weaker reporter binding
In short: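 An oligonucleotide input, 200 uM small-molecule ligand, or no input was present during titration of SNAP-549-labelled MS2 coat protein, which was doubled from 0.7 or 1.5 nM to 3 µM. Designed RNA switches had been transcribed on Illumina chips by stalled E. coli RNA polymerase. Apparent KD per design is the median over clusters of curves fitted to normalised cluster fluorescence.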

[1] = input ligand: microRNA oligo, concentration not stated
[2] = Eterna round: R95, input ligand: microRNA oligo, concentration not stated
[3] = Eterna round: R95, input ligand: FMN 200 uM
[4] = Eterna round: R95, input ligand: none

Row | Sequence | apparent KD of MS2 coat protein (input ligand: FMN 200 uM) | apparent KD of MS2 coat protein [1] | apparent KD of MS2 coat protein (input ligand: none) | apparent KD of MS2 coat protein [2] | apparent KD of MS2 coat protein [3] | apparent KD of MS2 coat protein [4]
1 | GCAGCAACUCUAAUCAAACUAACAUGAGGAUCACCCAUGUCUCAGGAUAUGGUCUGGAUUACAGGCCAGAAGGGAGAAAGCUGC [Eli exng3 - 049] (Eterna round: R96, puzzle: Exclusion NG 3) | 9.04 nM | 10.4 nM | 14.8 nM |  |  | 
2 | UAUACUAGAUAGGAUAUACUUUAUUUUUUUUUCGUAGAAGGAUCUACAUGAGGAUCACCCAUGUUAACAGCAGU [JR_E6_Sub008] (puzzle: Exclusion 6) |  |  |  | 55.1 nM |  | 
3 | CGUCCACAUGAGGAUCACCCAUGUGAGGAUAUCUAGCACGCAGUAGUACUGUGACAUCGGAGAAGGCGUAGGGU [Eternabot (L2) Solution 96] (Eterna round: R97, puzzle: Exclusion 1) | 32.2 nM |  | 21.2 nM |  |  | 
4 | AACCUGAGGCUUUGCUUUAGGUGUACAUGAGGAUCACCCAUGUAGGAUAUGGUAGGCUUUGCUUACCAGAAGGACAUUGGCGUA [Mat - Exclusion NG 3 - Mod of JL - D39] (Eterna round: R96, puzzle: Exclusion NG 3) | 144 nM | 66.4 nM | 77.2 nM |  |  | 
5 | AUUGAUGUUGAGGAUAUGCUUAUAUUUAUACUUGCAGAAGGCGAUACAUGAGGAUCACCCAUGUUCAUGGAAGU [JR_E6_Sub092] (puzzle: Exclusion 6) |  |  |  | 26.2 nM |  | 
6 | AGCAAGCAAUAGGAUAUGCCUGCAAGCUUGCACGCAGAAGGAUUGACUUGAGGAUCACCCAAGUGGGCUCCAAA [Xemaesti] (Eterna round: R97, puzzle: Exclusion 6) | 356 nM |  | 83.6 nM |  |  | 
7 | ACAUGAGGAUCACCCAUGUAGACAGCUGCAACCGGUGAAAGACAGGAUAUGUGACGGCACAGGGAACAGAAGGGUCAAAGAAAA [Ceatasoes] (Eterna round: R96, puzzle: Exclusion NG 3) | 21.2 nM | 22 nM | 30.9 nM |  |  | 
8 | UCAUGUUUAGAGGAUAUGAUUACUUUCGAGUAAUCAGAAGGCUAGACAUGAGGAUCACCCAUGUCAUAACAUGA [Exclusion 6 - B - 15:b] (puzzle: Exclusion 6) |  |  |  | 71.8 nM | 68.7 nM | 214 nM
9 | ACAUGUCAUUGAGGAUAUUGCACACAUGAGGAUCACCCAUGUAUACGGUUGCUCUUGCGUGAGUUCGAGAAGGCGAUGUACAUU [Ex NG2 #87] (Eterna round: R96, puzzle: Exclusion NG 2) | 356 nM | 168 nM | 159 nM |  |  | 
10 | CAGUACUGAGGAUAUACAUGAGGAUCACCCAUGUGUUCCAGCUAGGAAACUAGCAAAUGUAGAAGGCAGUACUG [Salish 065 m8] (Eterna round: R97, puzzle: Exclusion 3) | 45.1 nM |  | 323 nM |  |  | 
11 | AAAUAUCAUGUAGGAUAUGGAAGGCGAACCUAUCCAGAAGGACAUGAGGAUCACCCAUGUGCUGAGUUGUCCGUAGACAGCUCU [Ex NG1 #3] (Eterna round: R96, puzzle: Exclusion NG 1) | 168 nM | 27.1 nM | 31 nM |  |  | 
12 | AGUACUUUCACGAAAGUGAAAGUACAAUAAGCUUGUGGAACAUGAGGAUCACCCAUGUCCUCAUAAGCUCGUCUUAU [Mat - Sensor v3 - Turn-off var 2 - D32] (puzzle: Sensor v3, turn-off variant 2) |  |  |  | 72.5 nM | 17.3 nM | 15.5 nM
13 | UCGUAGGAAGGAUAUGCAUGCUUUGAUAAAUCCAGGCCUGGACAUGAGGAUCACCCAUGUAGAAGGUCCACGGA [EX2 B.11] (Eterna round: R97, puzzle: Exclusion 2) | 36.6 nM |  | 31.4 nM |  |  | 
14 | UUAUACGUUGAGGAUAUGCGACUUUUUUUAGUUGUAGAAGGCGAUACAUGAGGAUCACCCAUGUUUAUGGGCAU [LRO-Ex6-11] (puzzle: Exclusion 6) |  |  |  | 137 nM |  | 
